Results on one molecule are retold here after US9834755B2, “Compositions and methods for enhanced generation of hematopoietic stem/progenitor cells” (FRED HUTCHINSON CANCER RESEARCH CENTER, priority 2011, dated 2017).

Marks after values point to notes of the source that are not given here.

The subject of assay [1] is CD34^+ CB HSPC. Put plainly: SRC frequency by limiting dilution analysis in NSG mice. Format: in vivo, human. The settings on record: Delta1^Ext-IgG 2.5 μg/ml alone, 5 μg/ml with SR1; for No. mice engrafted, Engraftment with ≧0.5% CD34^+ cells / No. mice engrafted, Engraftment with ≧1% CD33^+ cells / No. mice engrafted, Engraftment with ≧1% CD34^+ cells / No. mice engrafted, Engraftment with ≧5% CD33^+ cells: bone marrow aspirate at 2 weeks. The text has this: Human cord blood (CB) samples for research were obtained from normal deliveries under Swedish Medical Center Institutional Review Board (Seattle) approval and after consent was obtained. CB samples were red blood cell depleted (Delaney et al., 2010, Nat Med 16(2):232-236), CD34 enriched using CD34^+ immunomagnetic particles (Miltenyi Biotec), purified with Automacs (Miltenyi Biotec), and cryopreserved. […] Cultures were initiated with 7×10^4 to 1.3×10^5 CD34^+ cells for 25-cm^2 flasks and with 3×10^5 CD34^+ cells for 75-cm^2 flasks. Immunofluorescence analysis was performed as described (Ohishi et al., 2002, J Clin Invest. 110(8):1165-1174) with labeled antibodies: FITC (human CD14, CD33, and Lineage); PE (human CD7, CD14, CD15, CD19, CD90, and CD123); PERCP (human CD34); APC (human CD10, CD45, IL3Ra); PECy7 (mouse CD45.1, human CD34); Alexa Fluor 700 (CD38); APC-eFluor 780 (CD45RA). Transplants were performed in sublethally irradiated (275 rad) NOD-SCID IL-2Rγ-null mice (NSG). In vivo engraftment was assessed by immunofluorescence analysis of human cell subsets (human CD45^+ murine CD45.1). On average, the total number of cells infused was 4.25×10^6/mouse for Delta1^ext-IgG alone, 1.88×10^7/mouse for SR1 alone, and 4.76×10^6/mouse for the combination. Statistical analyses were performed as indicated. For limiting dilution analysis, mice were injected with the cultured progeny of the number of CD34^+ cells indicated and bone marrow aspirates performed at 2 weeks. Two engraftment cut-offs were chosen based on percent engraftment observed in non-limiting transplantation studies. The frequency of SRCs was determined by the method of maximum likelihood with L-CALC software (StemCell Technologies) from the proportions of engrafted recipients (A, B).

The test system of assay [2] is CD34^+ CB HSPC. As to the kind of experiment: In vivo repopulation: cultured progeny of CD34+ CB HSPC transplanted into sublethally irradiated NSG mice. More on the design: species or system human. The settings on record: secondary transplantation; differences not statistically significant.
Procedure: Sublethally irradiated NOD-SCID IL-2Rγ-null mice (obtained from an established breeding colony at the Fred Hutchinson Cancer Research Center and approved for use by the Fred Hutchinson Cancer Research Center Institutional Animal Care and Use Committee) were infused with the progeny 10,000 starting CD34^+ cells per mouse via tail vein for cord blood experiments and the progeny of 20,000 for PBSC experiments. Repopulating ability of infused cells was assessed at 2-3 weeks post-transplant by bone marrow aspiration and at 13 weeks by bone marrow harvest.
Cells were cultured as described above and transplanted into sublethally irradiated immunodeficient NSG mice. Total human engraftment was defined as percent of human CD45^+ murine CD45.1^− cells based on bone marrow aspirate at 2 weeks post-transplant. Total myeloid engraftment was defined as percent human CD45^+CD33^+ murine CD45.1 cells on bone marrow aspirate at the same time point.
The progeny of 1×10^4 CD34^+ cells were then transplanted into 10 sublethally irradiated NSG mice per condition and engraftment was assessed by bone marrow aspirate at 2 weeks post-transplant. Total human engraftment was defined as percent of human CD45^+ murine CD45.1^− cells based on bone marrow aspirate at 2 weeks post-transplant. Total myeloid engraftment was defined as percent human CD45^+CD33^+ murine CD45.1^− cells on bone marrow aspirate at the same time point.
Transplants into NSG mice were performed as described above, with the cultured progeny of 1×10^4 CD34^+ cells. Cells were cultured in the presence of SR1, Delta1^Ext-IgG 2.5 μg/ml, or SR1 and Delta1^Ext-IgG (2.5 or 5 μg/ml) for 16 days.
Cells were cultured and transplanted as described above with the progeny of 1×10^4 CD34^+ cells transplanted per mouse. Total human, progenitor cell, myeloid, and lymphoid assessments were performed on bone marrow samples. Bone marrow aspirates were performed in the mice at 2 and 8 weeks post-transplant, and mice were sacrificed for bone marrow harvest at 13 weeks.
For assay [3] the following is noted: patients, vs concurrent cohort receiving double cord blood transplantation of non-manipulated units; cited from earlier work.
Assay [4] relates to CD34^+ CB HSPC. As to the kind of experiment: Ex vivo culture/expansion of CD34+ cord blood HSPC, cell counts and flow cytometric phenotype. Format: cell-based, human. The protocol: Human cord blood samples for research were obtained from normal deliveries under Swedish Medical Center Institutional Review Board (Seattle) approval and after consent was obtained. The units were incubated in ammonium chloride red blood cell lysis buffer (consisting of 16.6 g NH4Cl, 2 g NaHCO3 and 74.4 mg EDTA per 2L of water) and resuspended in PBS with 2% human AB serum. Cells were incubated with CD34 Microbeads from Miltenyi Biotec and purified with an Automacs (Miltenyi Biotec). Cells were then frozen and thawed at time of use with PBS+1% FBS. Pools of 2 or more cord blood units were used for all experiments. Peripheral blood stem cells (PBSC) were obtained from a single donor and cryopreserved after CD34^+ cell selection.
Cells were cultured for 16 days in non-tissue-cultured-treated tissue culture flasks (25, 75, and 175-cm^2). Flasks were precoated with Delta1^ext-IgG (ligand preparation described in Delaney C. et al., 2005, Blood 106(8):2693-2699; and Varnum-Finney et al., 2000, J. Cell Science 113: 4313-4318), or human control IgG at 2.5 μg/ml and retronectin 5 μg/ml. Delta1^ext-IgG titrations were performed with concentrations of 0.5, 1.25 (for PBSC), 2.5, or 5 μg/ml. Flasks were incubated at 4° C. overnight or 37° C. for 2 hours and then washed with PBS and blocked with PBS 2% BSA for 30 minutes at 37° C. Cells were cultured in StemSpan serum-free expansion medium in the presence of 4 growth factors (IL6 (50 ng/ml), thrombopoietin (50 ng/ml), Flt-3 ligand (50 ng/ml), stem cell factor (50 ng/ml)) or 5 growth factors (4 growth factors plus IL3 (10 ng/ml)). SR-1 was made fresh and added to cells with all feedings at a concentration of 750 nM. Cultures in 25-cm^2 flasks were initiated with between 7×10^4 and 1.3×10^5 CD34^+ cells. Cultures in 75-cm^2 flasks were initiated with 3×10^5 CD34^+ cells. Cells were expanded to larger flasks when they exceeded cell density >1×10^6 cells/ml. Expansions typically occurred on day 7 and 10 of culture. Fresh media with cytokines was added very 3-4 days including the day prior to transplantation.
Immunofluorescence analysis was performed as described (see Ohishi et al., 2002, J Clin Invest. 110(8): 1165-1174), with FITC-labeled antibodies against human CD3, CD14, CD15, CD33, CD34, CD90, phycoerythryin (PE)-labeled antibodies against human CD19, CD56, CD90, CD133, Glycophorin A, CXCR4, PERCP-labeled antibodies against human CD14, CD34, APC-labeled antibodies against human CD45, CD90 and PECy7 labeled antibody against mouse CD45.1.
To determine whether Delta1^Ext-IgG and SR1 in combination were successfully able to expand CD34^+ CB HSPC ex vivo, CD34^+ cell generation, an HSPC enriched population routinely used in clinical application, was assessed at multiple time points in culture as compared to IgG control. CD34^+ CB progenitors were isolated by bead selection and Automacs and then cultured for 21 days in StemSpan serum-free expansion media supplemented with cytokines (TPO, SCF, IL-6, and Flt3-ligand at 50 ng/ml). […] Cells were cultured in the presence of SR1 (750 nM) and Delta1^Ext-IgG (0.5 or 2.5 μg/ml) or an IgG control. The engineered Notch ligand, Delta1^ext-IgG, contains the extracellular domain of Delta1 fused to the Fc portion of human IgG1 and is immobilized on the plastic surface of tissue culture flasks at varying densities. Immobilization of the Fc portion of human IgG1 served as a control construct. […] CD34^+ selected cells were seeded per flask from a pool of 2 CB units. […]

The mark [5] stands for this setting: limiting dilution analysis, maximum likelihood.

B1: Delta1^Ext-IgG: engineered Notch ligand: extracellular domain of Delta1 fused to the Fc portion of human IgG1, immobilized on tissue culture flasks (protein)
chain: QVWSSGVFELKLQEFVNKKGLLGNRNCCRGGAGPPPCACRTFFRVCLKHYQASVSPEPPCTYGSAVTPVLGVDSFSLPDGGGADSAFSNPIRFPFGFTWPGTFSLIIEALHTDSPDDLATENPERLISRLATQRHLTVGEEWSQDLHSSGRTDLKYSYRFVCDEHYYGEGCSVFCRPRDDAFGHFTCGERGEKVCNPGWKGPYCTEPICLPGCDEQHGFCDKPGECKCRVGWQGRYCDECIRYPGCLHGTCQQPWQCNCQEGWGGLFCNQDLNYCTHHKPCKNGATCTNTGQGSYTCSCRPGYTGATCELGIDECDPSPCKNGGSCTDLENSYSCTCPPGFYGKICELSAMTCADGPCFNGGRCSDSPDGGYSCRCPVGYSGFNCEKKIDYCSSSPCSNGAKCVDLGDAYLCRCQAGFSGRHCDDNVDDCASSPCANGGTCRDGVNDFSCTCPPGYTGRNCSAPVSRCEHAPCHNGATCHERGHRYVCECARGYGGPNCQFLLPELPPGPAVVDLTEKLEGQGGPFPW
modifications: left off: a dimerising Fc or GST
notes: engineered Notch ligand: extracellular domain of Delta1 fused to the Fc portion of human IgG1, immobilized on tissue culture flasks
On to B1, for which, in the assay on CD34^+ CB HSPC [1] (1000 CD34^+ cells/mouse), the “No. mice engrafted, Engraftment with ≧0.5% CD34^+ cells” value was 0/9; the “No. mice engrafted, Engraftment with ≧1% CD33^+ cells” value is recorded as 2/9; the “No. mice engrafted, Engraftment with ≧1% CD34^+ cells” value is 0/9; the “No. mice engrafted, Engraftment with ≧5% CD33^+ cells” value is 0/9. For the same molecule, in the assay on CD34^+ CB HSPC [1] (4000 CD34^+ cells/mouse), the “No. mice engrafted, Engraftment with ≧0.5% CD34^+ cells” value is listed as 1/9; the “No. mice engrafted, Engraftment with ≧1% CD33^+ cells” value is recorded as 9/9; the “No. mice engrafted, Engraftment with ≧1% CD34^+ cells” value is given as 0/9; the “No. mice engrafted, Engraftment with ≧5% CD33^+ cells” value was 3/9. Moreover, in the assay on CD34^+ CB HSPC [1] (20000 CD34^+ cells/mouse), the “No. mice engrafted, Engraftment with ≧0.5% CD34^+ cells” value is listed as 7/7; the “No. mice engrafted, Engraftment with ≧1% CD33^+ cells” value was 7/7; the “No. mice engrafted, Engraftment with ≧1% CD34^+ cells” value is on record as 6/7; the “No. mice engrafted, Engraftment with ≧5% CD33^+ cells” value is given as 6/7. Besides, in the assay with CD34^+ CB HSPC [1] (setting [5]), the “CD33^+ SRC frequency per starting cell, Engraftment with ≧1% CD33^+ cells” value is given as 1/1719*; the “CD33^+ SRC frequency per starting cell, Engraftment with ≧5% CD33^+ cells” value is 1/11314^#; the “CD34^+ SRC frequency per starting cell, Engraftment with ≧0.5% CD34^+ cells” value was 1/11739*; the “CD34^+ SRC frequency per starting cell, Engraftment with ≧1% CD34^+ cells” value is recorded as 1/19121^#. The “human engraftment upon secondary transplantation, average CD45^+” value in the assay with CD34^+ CB HSPC [2] was determined as 0.22%. Besides, the “reduction in time to neutrophil engraftment” value in assay [3] was 50%. Besides, the “CD34 expansion compared to IgG control” value in the assay on CD34^+ CB HSPC [4] (7, 14, 18 and 21 days in culture, alone groups: data not shown) is given as “enhanced CD34 expansion”. Also, in the assay on CD34^+ CB HSPC [4] (day 16, SR1 with Delta1^Ext-IgG 0, 0.5, 2.5 or 5 μg/ml), the “TNC generation with increasing densities of Delta1^Ext-IgG” value was “decreased TNC generation in a stepwise manner”.
